Target: C. elegans UNC-13 long isoform residues 1-258 bearing the K49E mutation (C. elegans)
Assay: ITC

B1: C. elegans UNC-10 residues 62-121 WT (domain or fragment)
chain: KLVGTQDDAICQICQKTKFADGIGHKCFYCQLRSCARCGGRAQSKNKAIWACSLCQKRQQ
- Kd: 1290 nM
